This passage reports Tm results from the FLAb antibody collection.

One data set in a line: melting temperature. To be noted: DSF (SYPRO).
As to “QVKLEESGGGLVQAGGSLRLSCAASERTFSRYPVAWFRQAPGAEREFVAVISSTGTSTYYADSVKGRFTISRDNAKVTVYLQMNNLKREDTAVYFCAVNSQRRRLQDPNEYDYWGQGTQVTVSSGSEQKLISEEDLNHHHHHH”, the Tm – broadly, the temperature at which the thermal transition is half complete – came to 79.1 °C.
The same measure, in the same setting: the value for “QVKLEESGGGLVQAGGSLRLSCAASERTFSRYPVAWFRQAPGAEREFVAVISSTGTSTYYADSVKGRFTISRDNAKVTVYLQMNNLKREDTAVYFCAVNSQRTRLLDPNEYDYWGQGTQVTVSSGSEQKLISEEDLNHHHHHH” was 80 °C; that for “QVKLEESGGGLVQAGGSLRLSCAASERTFSRYPVAWFRQAPGAEREFVAVISSTGTSTYYADSVKGRFTISRDNAKVTVYLQMNNLKREDTAVYFCAVNSQRTRLQDPREYDYWGQGTQVTVSSGSEQKLISEEDLNHHHHHH” was 77.6 °C; that for “QVKLEESGGGLVQAGGSLRLSCAASERTFSRYPVAWFRQAPGAEREFVAVISSTGTSTYYADSVKGRFTISRDNAKVTVYLQMNNLKREDTAVYFCAVNSQRTRLQNPNEYDYWGQGTQVTVSSGSEQKLISEEDLNHHHHHH” was 74.9 °C.
With “QVKLEESGGGLVQAGGSLRLSCAASERTFSRYPVAWFRQAPGAEREFVAVISSTGTSTYYADSVKGRFTISRDNAKVTVYLQMNNLKREDTAVYFCAVNSQRTRLQYPNEYDYWGQGTQVTVSSGSEQKLISEEDLNHHHHHH”, the melting temperature (Tm) was 73.4 °C.
Turning to “QVKLEESGGGLVQAGGSLRLSCAASERTFSRYPVAWFRQAPGAEREFVAVISSTGTSTYYADSVKGRFTISRDNAKVTVYLQMNNLKREDTAVYFCAVNSQRTRLWDPNEYDYWGQGTQVTVSSGSEQKLISEEDLNHHHHHH”, the melting temperature (Tm) is 79.7 °C.
Take “QVKLEESGGGLVQAGGSLRLSCAASERTFSRYPVAWFRQAPGAEREFVAVISSTGTSTYYADSVKGRFTISRDNAKVTVYLQMNNLKREDTAVYFCAVNSQRTRLYDPNEYDYWGQGTQVTVSSGSEQKLISEEDLNHHHHHH”: the midpoint of thermal melting (Tm) was 79 °C.
Regarding “QVKLEESGGGLVQAGGSLRLSCAASERTFSRYPVAWFRQAPGAEREFVAVISSTGTSTYYADSVKGRFTISRDNAKVTVYLQMNNLKREDTAVYFCAVNSQRTWLQDPNEYDYWGQGTQVTVSSGSEQKLISEEDLNHHHHHH”, the Tm worked out at 77.3 °C.
As to “QVKLEESGGGLVQAGGSLRLSCAASERTFSRYPVAWFRQAPGAEREFVAVISSTGTSTYYADSVKGRFTISRDNAKVTVYLQMNNLKREDTAVYFCAVNSQRWRLQDPNEYDYWGQGTQVTVSSGSEQKLISEEDLNHHHHHH”, the Tm is 77.5 °C.
Take “QVQLQESGGGLVQPGGSLRLSCAASGFTISTTAMSWVRQAPGKGIEWVSTIFASGETTSYADFVQGRFITSRDNTKNTLYLQLNNLKTEDTAMYFCAAADDFGGLNNRYRGQGTQVTVSS”: the Tm was 60.7 °C.
“QVQLQESGGGSVQAGGSLKLSCAASGYIFSSCAMSWYRQAPGKERELVSSITSYGDAAYTDSAKGRFTISRDNAKNTLYLHLNNLKPEDTAVYFCAACPRNKYWGQGTQVTVSS”: the melting temperature (Tm) amounted to 68.4 °C.
For “QVQLQESGGGSVQAGGSLKLSCDASTYTYGGKCMGWFRQAPGKEREFVAFIESDGRTSYADSVKGRFTISQDDAKNTVYLQMNSLKPEDTSMYYCKTAAGAFCGTRSYGFWGQGTQVTVSS”, the Tm came out at 57.2 °C.
For the sequence “QVQLQESGGGSVQAGGSLRLPCVASGYIYSPTKMGWFRQAPGKERELVSSITRDGRPYYSDSVKGRFTISQDNAKNTVYLQMNSLKPEDTAMYYCFADVRLSAVGGIKTYWDQGTQVTVSS”, the Tm amounted to 58.6 °C.
Still for that read-out and setting: for “QVQLQESGGGSVQAGGSLRLSCAASGWTYSTATMGWYRQAPGKERELVSSIFSDENTYYKDSVKGRFTISRDAAKNTVYLQMNSLKPEDTAMYYCYIRPTTSLANWRWGQGTQVTVSS” the value was 59.7 °C.
The same measure, in the same setting: the value for “QVQLQESGGGSVQAGGSLRLSCAASGYTYTMGWFRQAPGKEREGVTIIYTGYDNIVYADSVKGRFTISRDNAKNTVYLQMNNLKPEDTAMYHCAAATRGLPRSYFDPGWYDSWGQGTQVTVSS” was 62.5 °C.
In the case of “QVQLQESGGGSVQAGGSLRLSCAVSGYTYSRNCIGWFRQAPGKEREGVAALYTGGGSTYYAASVKGRFTISQDTKNTVYLQMNSLKPEDSAMYYCAANPFGLYTCGDLRGPDFGYWGQGTQVTVSS”, the Tm worked out at 71 °C.
For the sequence “QVQLQESGGGSVQAGGSLRLSCAVSGYTYSSYSIGWFRQAPGKEREGVAAINSGGSTNYAGSVEGRFTISQDNAKNTVSLLMNSLKPEDTATYYCAVGAFFTLRPTLYNYKGQGTQVTVSS”, the Tm came to 48.3 °C.
As to “QVQLQESGGGSVQAGGSLRLSCESSGMTFSVYNLGLRQAPGQECELSTITRDGSTDYADSMKGRFTISRDNAKNTMYLQMTSLKPDDTAVYYCAAGVGVVDCTEGQGTQVTVSS”, the midpoint of thermal melting (Tm) was 51.8 °C.

The same data set, now with this note: nanoDSF.
Consider “KVQLVESGGGLVQAGGSLRLACTASGSAFSINTMGWYRRAPGKQRELVASITSSGSTTYADSVKGRFTISRDSAKNTVFLQMNSVKPEDTSVYYCNGEIQRTDYNFWGQGTQVTVSS”, for which the melting temperature (Tm) turned out to be 63.5 °C.
In the case of “QVQLQESGGGSVQAGGSLKLSCAASGYIFSSCAMSWYRQAPGKERELVSSITSYGDAAYTDSAKGRFTISRDNAKNTLYLHLNNLKPEDTAVYFCAACPRNKYWGQGTQVTVSS”, the Tm worked out at 63.6 °C.
For the sequence “QVQLQESGGGSVQAGGSLKLSCDASTYTYGGKCMGWFRQAPGKEREFVAFIESDGRTSYADSVKGRFTISQDDAKNTVYLQMNSLKPEDTSMYYCKTAAGAFCGTRSYGFWGQGTQVTVSS”, the midpoint of thermal melting (Tm) was 60.8 °C.
In the case of “QVQLQESGGGSVQAGGSLRLPCVASGYIYSPTKMGWFRQAPGKERELVSSITRDGRPYYSDSVKGRFTISQDNAKNTVYLQMNSLKPEDTAMYYCFADVRLSAVGGIKTYWDQGTQVTVSS”, the Tm is 63.3 °C.
“QVQLQESGGGSVQAGGSLRLSCAASGWTYSTATMGWYRQAPGKERELVSSIFSDENTYYKDSVKGRFTISRDAAKNTVYLQMNSLKPEDTAMYYCYIRPTTSLANWRWGQGTQVTVSS”: the Tm amounted to 63.9 °C.
On the same count and under the same terms, for “QVQLQESGGGSVQAGGSLRLSCAASGYTYTMGWFRQAPGKEREGVTIIYTGYDNIVYADSVKGRFTISRDNAKNTVYLQMNNLKPEDTAMYHCAAATRGLPRSYFDPGWYDSWGQGTQVTVSS” the value was 70 °C.
On to “QVQLQESGGGSVQAGGSLRLSCAVSGYTYSSYSIGWFRQAPGKEREGVAAINSGGSTNYAGSVEGRFTISQDNAKNTVSLLMNSLKPEDTATYYCAVGAFFTLRPTLYNYKGQGTQVTVSS”, for which the midpoint of thermal melting (Tm) came out at 53.6 °C.
